The values below come from the nanobody polyreactivity screen of Harvey et al. (2022).

The nature of the series: yeast display, Sf9 membrane polyspecificity reagent, FACS + sequencing; frameworks hold sequencing errors. A digest of the protocol: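 A nanobody's polyreactivity label depends on the gate it was sorted from. Yeast display cells were stained with 10% biotinylated, detergent-solubilized Sf9 membrane reagent for 1 hour at 4 °C, enriched on streptavidin microbeads and sorted by FACS. The low and high (top ~1%) gates were set on anti-HA fluorescence for expression and streptavidin fluorescence for reagent binding.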
Regarding “QVQLVESGGGLVQAGGSLRLSCAASGSTFGRYAMGWYRQAPGKERELVAAITSDTGHTNYADSVKGRFTISRDNAKNTVYLQMNSLKPEDTAVYYCAAANFWVLWGHVIGNYDSWGQGTQVTVSS”, the “polyreactivity (PSR sort gate)” value was “low polyreactivity”.

For “QVQLVESGGGLVQAGGSLRLSCAASGSTFGRYGMGWYSQAPGKERELVAAISKNAGSTYYADSVKGRCTISRDNAKNTVYLQMNSLKPEDTAVYYCAADWRTKGYDSLGQGTQVTVSS”, the “polyreactivity (PSR sort gate)” value is “high polyreactivity”.

Consider “QVQLVESGGGLVQAGGSLRLSCAASGSTFGRYVMGWYRQAPGKERELVAAISYSGGRTYYADSVKGRFTISRDNAKNTVYLQMNSLKPEDTAVYYCNKGGIREYDYWGQGTQVTVSS”, for which the “polyreactivity (PSR sort gate)” value is “high polyreactivity”.

Consider “QVQLVESGGGLVQAGGSLRLSCAASGSTFGSNAIGWYRQAPGKERELVAAISKRGGSTYYADSVKGRFTISRDNAKNTVYLQMNSLKPEDTAVYYCAVAYTPSRRYSAYSADRMDYWGQGTQVTVSS”, for which the “polyreactivity (PSR sort gate)” value was “high polyreactivity”.

As for “QVQLVESGGGLVQAGGSLRLSCAASGSTFGSYAMGWYRQAPGKERELVAAITGSGGRTYYADSVKGRFTISRDNAKNRVYLQLNSLKPEDTAVYYCAKVPDYRFEYWGQGTQVTVSS”, the “polyreactivity (PSR sort gate)” value is recorded as “high polyreactivity”.

As to “QVQLVESGGGLVQAGGSLRLSCAASGSTFGSYAMGWYRQAPGKERELVASISSRGGSTYYADSVKGRFTISRDNAKNTVYLQMNSLKPEDTAVYYCPATRYSAYSRGKYNFWGQGTQVTVSS”, the “polyreactivity (PSR sort gate)” value is on record as “high polyreactivity”.

Take “QVQLVESGGGLVQAGGSLRLSCAASGSTFGTNVMGWYRQAPGKERELVAAISRRGSSTYYADSVKGRFTISRDNAKNTVYLQMNSLKPEDTAVYYCAARVYPSAAMDSWGQGTQVTVSS”: the “polyreactivity (PSR sort gate)” value is on record as “high polyreactivity”.

For “QVQLVESGGGLVQAGGSLRLSCAASGSTFGTYAMGWYRQAPGKERELVAAITSGDNTYYADSVKGRFTISRDNAKNTVYLPMNSLKPEDTAVYYCAKDYNRYYWPWVIRGYDYWGQGTHVTVSS”, the “polyreactivity (PSR sort gate)” value is listed as “low polyreactivity”.

“QVQLVESGGGLVQAGGSLRLSCAASGSTFGTYAMGWYRQEPGKERELVAAINRDGGRTYYADSVKGRFTISRDNAKNTVYLQMNSLKPEDTAVYYCAAEGLDEGDYWGQGTQVTVSS”: the “polyreactivity (PSR sort gate)” value is recorded as “low polyreactivity”.

For the sequence “QVQLVESGGGLVQAGGSLRLSCAASGSTFGVNALGWYRQAPGKERELVAVITRSGGSTYYADSVKGRFTISRDNAKNTVYLQMNSLKPEDTAVYYCAKSGVVDWGQGTQVTVSS”, the “polyreactivity (PSR sort gate)” value is “low polyreactivity”.

On to “QVQLVESGGGLVQAGGSLRLSCAASGSTFGVNAMGWYRQAPGKERELVADMSFRTDSTYYADSVKGRFTISRDNAKNTVYLQMNRLNPEDTAVYYCAAEVPYYYPGFYSYYDDSDYWGQGTQVTVSS”, for which the “polyreactivity (PSR sort gate)” value was “low polyreactivity”.

“QVQLVESGGGLVQAGGSLRLSCAASGSTFGVNAMGWYRQAPGKERELVAIITSTTYADSVKGRFTISRDNAKNTVYLQMNSLKPEDTAVYYCAKDQERVTKGRFYLLEYYWGQGTQVTVSS”: the “polyreactivity (PSR sort gate)” value is “low polyreactivity”.

Take “QVQLVESGGGLVQAGGSLRLSCAASGSTFGVNAMGWYRQAPGKERELVAVITRSGGSTYYADSVKGRFTISRDNAKNTVYLQMNSLKPEDTAVYYCATSGVVDWGQGTQVTVSS”: the “polyreactivity (PSR sort gate)” value is given as “low polyreactivity”.

Regarding “QVQLVESGGGLVQAGGSLRLSCAASGSTFGVYAMGWYREAPGKERELVAAINKSGTRTYYADSVKGRFTISRDNAKNTVYLQMNSLKPEDTAVYYCAADQGTYGYGGFYYWGQGTQVTVSS”, the “polyreactivity (PSR sort gate)” value is recorded as “high polyreactivity”.

Take “QVQLVESGGGLVQAGGSLRLSCAASGSTFGVYAMGWYRQAPGKEREFVAAITSSSGSTYYADSVKGRFTISRDNAKNTVYLQMNSLKPEDTAVYYCNVQGWTRSDAGRYDNMDYWGQGTQVTVSS”: the “polyreactivity (PSR sort gate)” value is recorded as “low polyreactivity”.

Regarding “QVQLVESGGGLVQAGGSLRLSCAASGSTFGVYDMGWYRQAPGKERELVAAITGNGGRTYYADSVKGRFTISRDNAKNTVYLQMNSLKPEDTAVYYCNARVKRYVYWPYDYWGQGTQVTVSS”, the “polyreactivity (PSR sort gate)” value was “high polyreactivity”.

On to “QVQLVESGGGLVQAGGSLRLSCAASGSTFGWYAMGGYRQAPGKERELVAAISSGGSTYYADSVKGRFTISRDHAKYTVYLQMNSLKPEDTAVYYCAADIGYYYRYDYWGQGTQVTVSS”, for which the “polyreactivity (PSR sort gate)” value is on record as “low polyreactivity”.

With “QVQLVESGGGLVQAGGSLRLSCAASGSTFGWYAMGLYRQAPGKERELVATISSGGSTYYADSVKGRFTISRDNAKNTVYLQMNSLKPEDTAVYYCAADYWTYEYPGYDYWGQGTQVTVSS”, the “polyreactivity (PSR sort gate)” value is recorded as “low polyreactivity”.

For the sequence “QVQLVESGGGLVQAGGSLRLSCAASGSTFGWYAMGWYRQAPGKERELVAAISTSGNTYYADSVKGRFTISRDNAKNTVYLHMNRLKPEDTAVSYCAKYVNPDHDYWGQGTQVTVSS”, the “polyreactivity (PSR sort gate)” value is reported as “low polyreactivity”.

As to “QVQLVESGGGLVQAGGSLRLSCAASGSTFGWYTMGWYRQAPGKERELVAAITSRGTRTSYADSVKGRFTISRDNAKNTVYLQMNSLKPEDTAVYYCAARVFRGLGEYYWGQGTQVTVSS”, the “polyreactivity (PSR sort gate)” value is “high polyreactivity”.

“QVQLVESGGGLVQAGGSLRLSCAASGSTFGYNAMGWYRQAPGKEREFVASIDARGTSTYYADSVKGRFTISRDNAKNTVYLQMNSLKPEYTAVYYCAADAEFTWSTVRLGWIYIWYEYWGQGTQVTVSS”: the “polyreactivity (PSR sort gate)” value is “low polyreactivity”.

Take “QVQLVESGGGLVQAGGSLRLSCAASGSTFGYNAMGWYRQAPGKEREFVATIRYSGDRTYYADSVKGRFTISRDNAKNTVYLQMNSLKPEDTAVYYCAADLYYNSYGRYGRYYYWGQGTQVTVSS”: the “polyreactivity (PSR sort gate)” value is “high polyreactivity”.

Turning to “QVQLVESGGGLVQAGGSLRLSCAASGSTFGYNAMGWYRQAPGKERELVAAISSDGSTNYADSVKGRFTISRDNSKNTVYLQMNSLKPEDTAVYYCAADDNGAWVRMDYWGHGTQVTVSS”, the “polyreactivity (PSR sort gate)” value is reported as “low polyreactivity”.

For “QVQLVESGGGLVQAGGSLRLSCAASGSTFGYNAMGWYRQAPGKERELVAAISWRGGNTYYADSVKGRFTISRDNAKNTVYLQMNSLKPEDTAVYYCNKVWPRYYVHGGSRVPEYDYWGQGTQVTVSS”, the “polyreactivity (PSR sort gate)” value is given as “high polyreactivity”.

As for “QVQLVESGGGLVQAGGSLRLSCAASGSTFGYNAMGWYRQAPGKERELVAAISYIGGSTYYADSVKGRFTISRDNAKNTVYLQMNSLKPEDTAVYYCNAAVRYYDRTVSPVKFDYWGQGTQVTVSS”, the “polyreactivity (PSR sort gate)” value is listed as “high polyreactivity”.

As for “QVQLVESGGGLVQAGGSLRLSCAASGSTFGYNDMGWYRQAPGKERELVAAISVSDSSTYYADSVKGRFTISRDNAKNTVYLQMNSLKPEDTAVYYCAAYIYYNYSRQYWYDYWGQGTQVTVSS”, the “polyreactivity (PSR sort gate)” value is “low polyreactivity”.

Regarding “QVQLVESGGGLVQAGGSLRLSCAASGSTFGYNDMGWYRQAPGKERELVAAISVSDSSTYYADSVKGRFTISRDYAKNTVYLQMNCLKPEDTAVYYCAAEYYVGFTYRYEYWGQGTQVTVSS”, the “polyreactivity (PSR sort gate)” value is “low polyreactivity”.

Consider “QVQLVESGGGLVQAGGSLRLSCAASGSTFGYNTMGWYRQAPGNERELVAAITGTGRTNYADSVKGRFTISRDNAKNTVYLQMNRLNPEDTAVYYCNARQAGTRYKYGYYGRYYWGQGTQVTVSS”, for which the “polyreactivity (PSR sort gate)” value is listed as “high polyreactivity”.

Turning to “QVQLVESGGGLVQAGGSLRLSCAASGSTFGYYAMGWNRQAPGKERELVATITWSGGSTNYADSVKGRFTISRDNAKNTVYLQMYSLKPEDTAVYYCAADLKYWYFGLAFIEVDYWGQGTQVTVSS”, the “polyreactivity (PSR sort gate)” value is “low polyreactivity”.

For the sequence “QVQLVESGGGLVQAGGSLRLSCAASGSTFGYYAMGWYRQAPGKERELVAAISDGGSTYYADSVKGRFTISRDNAKNTVYLQMNSLKPEDTAVYYCAAEYLAYDWYEYYYWGQGTQVTVSS”, the “polyreactivity (PSR sort gate)” value is on record as “high polyreactivity”.

For “QVQLVESGGGLVQAGGSLRLSCAASGSTFGYYAMGWYRQAPGKERELVAAITSGGSKKYADSVKGRFTISRDNAKNTVYLQMNSLKPEDTAVYYCATSRYFGYGYWGQGTQVTVSS”, the “polyreactivity (PSR sort gate)” value is given as “low polyreactivity”.

Turning to “QVQLVESGGGLVQAGGSLRLSCAASGSTFGYYAMGWYRQAPGKERELVAGITSGGSTYYADSVKGRFTISRDNAKNTVYLQMNSLKPEDTAVYYCAKPVRHYRGRYFKYDYWGQGTQVTVSS”, the “polyreactivity (PSR sort gate)” value is “high polyreactivity”.

As to “QVQLVESGGGLVQAGGSLRLSCAASGSTFGYYAMGWYRQAPGKERELVAVIRRGGSTNYADSVKGRFTISRDNAKNTVYLQMNSLKPEDTAVYYCNKYRYAGITAEFYYWGQGTQVTVSS”, the “polyreactivity (PSR sort gate)” value was “high polyreactivity”.

Consider “QVQLVESGGGLVQAGGSLRLSCAASGSTFGYYAMGWYRQAPGQERELVAAITSGGSTKYADSVKGRFTISRDNAKNTVYLQLISLKPEDNAVYYCATSRYFGYGYWGQGTQVTVSS”, for which the “polyreactivity (PSR sort gate)” value is reported as “low polyreactivity”.

Turning to “QVQLVESGGGLVQAGGSLRLSCAASGSTFGYYTMGWYRQAPGKERELVAAISWSGGRTYYADSVKGRFTISRDNAKNTVYLQMNSLKPEDTAVYYCAAPRYGGWRSYQKYDYWGQGTQVTVSS”, the “polyreactivity (PSR sort gate)” value is recorded as “high polyreactivity”.

Consider “QVQLVESGGGLVQAGGSLRLSCAASGSTFGYYTMGWYRQAPGKERELVAAITKSGGGTYYADSVKGRFTISRDNAKNTVYLQMNSLKPEDTAVYYCADYSRFTSDYWGQGTQVTVSS”, for which the “polyreactivity (PSR sort gate)” value is given as “high polyreactivity”.

On to “QVQLVESGGGLVQAGGSLRLSCAASGSTFGYYTMGWYRQSPGKERELVAAITWRGGRTYYADSVKGRFTISRDNEKNTVYLQMNSLKPEDTAVYYCAARSTVVMDYWGQGTKVTVSS”, for which the “polyreactivity (PSR sort gate)” value is given as “high polyreactivity”.

For the sequence “QVQLVESGGGLVQAGGSLRLSCAASGSTFHDNAMGWYIQAPGKERELVAAISSGGRTNYADSVKGRFTISRDNAKNTVYLQMNSLKPEDTAVYYCAASFRRWYFYDRHEYGYWGQGTQVTVSS”, the “polyreactivity (PSR sort gate)” value is given as “low polyreactivity”.

Take “QVQLVESGGGLVQAGGSLRLSCAASGSTFHDYAMGWYRQAPGKEREFVAAISVRGGSTYYADSVKGRFTISRDNAKNTVYLQMNSLKPEDTAVYYCNKLSSDSYNYWGQGTQVTVSS”: the “polyreactivity (PSR sort gate)” value is given as “high polyreactivity”.

As to “QVQLVESGGGLVQAGGSLRLSCAASGSTFHFYAMGWYRQAHGKERELVASITSRGGNTHYADSVKGRFTISRDNAKNTVYFQMNSLKPEDTAVYYCAARKGTSWKAHFRFDYWGQGTQVTVSS”, the “polyreactivity (PSR sort gate)” value is reported as “low polyreactivity”.

Consider “QVQLVESGGGLVQAGGSLRLSCAASGSTFHLYAMGWYRQAPGKERELVADIDLSGGSTYYADSVKGRFTISRDNAKNTVYLQMNSLKPEDTAVYYCAADHVSSLGFDYWGQGTQVTVSS”, for which the “polyreactivity (PSR sort gate)” value is recorded as “low polyreactivity”.
